# System: Escherichia coli TOP10
# Assay: shrunken log2 fold change of peptide-encoding DNA abundance (4.5 h post-induction vs induction); higher = less antimicrobial activity (less host growth inhibition)
# Settings: time post-induction: 4.5 h; library: site-saturation at positions 5, 18, 19, 20
# 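Note: peptides expressed intracellularly from a pBAD plasmid library in pooled LB shake-flask culture, induced with 0.3% L-arabinose, DNA abundance read by NGS, three biological replicates, DESeq2 with apeglm shrinkage.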
row,Sequence,shrunken log2 fold change
1,RRIRARPPRLPRPRPRPNRTPRP,0.197
2,RRIRYRPPRLPRPRPRPCPWPRP,-0.227
3,RRIRPRPPRLPRPRPRPWFDPRP,-0.278
4,RRIRIRPPRLPRPRPRPCTEPRP,-0.0706
5,RRIRGRPPRLPRPRPRPNNPPRP,-0.171
6,RRIRERPPRLPRPRPRPGFLPRP,-0.0604
7,RRIRARPPRLPRPRPRPDCDPRP,0.214
8,RRIRHRPPRLPRPRPRPTSNPRP,-0.448
9,RRIRFRPPRLPRPRPRPEITPRP,-0.208
10,RRIRYRPPRLPRPRPRPPTYPRP,-0.615
11,RRIRMRPPRLPRPRPRPKPMPRP,1.14
12,RRIRFRPPRLPRPRPRPKFRPRP,-0.0326
13,RRIRSRPPRLPRPRPRPCKGPRP,-0.3
14,RRIRYRPPRLPRPRPRPFCIPRP,-1.5
15,RRIRERPPRLPRPRPRPEWFPRP,0.0631
16,RRIRIRPPRLPRPRPRPWLCPRP,-0.121
17,RRIRVRPPRLPRPRPRPQRPPRP,0.306
18,RRIRMRPPRLPRPRPRPYSSPRP,-0.115
19,RRIRCRPPRLPRPRPRPSHSPRP,-0.392
20,RRIRKRPPRLPRPRPRPPNWPRP,0.593
21,RRIRVRPPRLPRPRPRPVYYPRP,-0.696
22,RRIRDRPPRLPRPRPRPWKFPRP,0.0062
23,RRIRMRPPRLPRPRPRPQYTPRP,-0.0579
24,RRIRGRPPRLPRPRPRPAGHPRP,0.562
25,RRIRARPPRLPRPRPRPHSEPRP,-0.0859

row,Sequence,shrunken log2 fold change
1,RRIRWRPPRLPRPRPRPSHEPRP,0.0227
2,RRIRTRPPRLPRPRPRPNQRPRP,0.181
3,RRIRWRPPRLPRPRPRPDMTPRP,0.216
4,RRIRSRPPRLPRPRPRPHFFPRP,-0.0717
5,RRIRGRPPRLPRPRPRPMNYPRP,0.00834
6,RRIRFRPPRLPRPRPRPLVKPRP,-0.143
7,RRIRHRPPRLPRPRPRPNQWPRP,-0.227
8,RRIRPRPPRLPRPRPRPEWDPRP,0.269
9,RRIRKRPPRLPRPRPRPNDDPRP,0.414
10,RRIRFRPPRLPRPRPRPKWYPRP,-0.388
11,RRIRSRPPRLPRPRPRPLNMPRP,-0.316
12,RRIRPRPPRLPRPRPRPTCVPRP,-0.136
13,RRIRERPPRLPRPRPRPRPHPRP,0.791
14,RRIRFRPPRLPRPRPRPYLKPRP,-1.36
15,RRIRPRPPRLPRPRPRPEHAPRP,0.197
16,RRIRFRPPRLPRPRPRPAAEPRP,0.558
17,RRIRNRPPRLPRPRPRPSCPPRP,-0.4
18,RRIRMRPPRLPRPRPRPQKSPRP,0.167
19,RRIRTRPPRLPRPRPRPQVVPRP,-0.0349
20,RRIRTRPPRLPRPRPRPNAMPRP,0.0879
21,RRIRPRPPRLPRPRPRPENNPRP,-0.119
22,RRIRYRPPRLPRPRPRPVEEPRP,-0.32
23,RRIRWRPPRLPRPRPRPKLIPRP,-0.211
24,RRIRNRPPRLPRPRPRPFLAPRP,-0.164
25,RRIRFRPPRLPRPRPRPGREPRP,0.0157

row,Sequence,shrunken log2 fold change
1,RRIRTRPPRLPRPRPRPKKQPRP,-0.15
2,RRIRQRPPRLPRPRPRPDCLPRP,-0.793
3,RRIRSRPPRLPRPRPRPWPGPRP,-0.139
4,RRIRLRPPRLPRPRPRPNEDPRP,-0.132
5,RRIRLRPPRLPRPRPRPLCHPRP,-0.253
6,RRIRRRPPRLPRPRPRPQCLPRP,0.066
7,RRIRKRPPRLPRPRPRPSWPPRP,0.321
8,RRIRWRPPRLPRPRPRPLCFPRP,-0.101
9,RRIRRRPPRLPRPRPRPWSFPRP,0.0517
10,RRIRKRPPRLPRPRPRPFVCPRP,0.0717
11,RRIRFRPPRLPRPRPRPRTEPRP,0.202
12,RRIRERPPRLPRPRPRPEMEPRP,-0.0231
13,RRIRHRPPRLPRPRPRPKHCPRP,-0.447
14,RRIRGRPPRLPRPRPRPKMWPRP,0.868
15,RRIRMRPPRLPRPRPRPCLPPRP,0.154
16,RRIRERPPRLPRPRPRPHDVPRP,0.00785
17,RRIRIRPPRLPRPRPRPQHIPRP,-0.542
18,RRIRDRPPRLPRPRPRPFYFPRP,-0.262
19,RRIRLRPPRLPRPRPRPALDPRP,0.396
20,RRIRYRPPRLPRPRPRPELTPRP,0.075
21,RRIRNRPPRLPRPRPRPHMWPRP,-0.0758
22,RRIRYRPPRLPRPRPRPLQLPRP,-1.13
23,RRIRGRPPRLPRPRPRPSYRPRP,-0.144
24,RRIRGRPPRLPRPRPRPSKRPRP,0.231
25,RRIRPRPPRLPRPRPRPHHTPRP,-0.617
